How the values were obtained:
[1] = target: soluble bovine M6P/IGF2R (mannose 6-phosphate/insulin-like growth factor II receptor) (bovine) (UniProt P08169); test: radioligand binding; competitive displacement of 1.5 nM ^125I-PMP-BSA tracer from soluble bovine M6P/IGF2R coupled to Sepharose 4B; test ligands 1 pM to 10 μM; 50 mM HEPES pH 7.4, 0.15 M NaCl, 0.05% Triton X-100; 16 h at 4°C
[2] = target: soluble bovine M6P/IGF2R (mannose 6-phosphate/insulin-like growth factor II receptor) (bovine) (UniProt P08169)
[3] = target: recombinant human insulin-like growth factor II (IGF-II); test: direct radioligand binding (125I-IGF-II) to FLAG-tagged receptor immunoprecipitated on M2 α-FLAG affinity resin; conditions: equimolar amounts of expressed soluble receptors from cell lysates; parent: est. 5800; read off a plot
[4] = target: T1, full-length ectodomain M6P/IGF2R mini-receptor with R1325A (repeat 9), C-terminal FLAG (human, UniProt P11717 41-2304, R1325A); test: radioligand binding; direct binding of ^125I-PMP-BSA or ^125I-hGUS to equimolar FLAG-tagged soluble receptors immunoadsorbed from HEK 293 lysates/conditioned media to M2 α-FLAG resin and washed; conditions: both partners purified
T1 construct: human M6P/IGF2R, all 15 ectodomain repeats, arginine-to-alanine substitution in the 9th domain; also called R1325AF; source: HEK 293, transiently transfected; cell lysates and conditioned media, immunoadsorbed to M2 α-FLAG resin; not shown: FLAG, C-terminal, kept

[5] = target: T2, full-length ectodomain M6P/IGF2R mini-receptor with R426A (repeat 3), C-terminal FLAG (human, UniProt P11717 41-2304, R426A); test: as above; conditions: both partners purified
T2 construct: human M6P/IGF2R, all 15 ectodomain repeats, arginine-to-alanine substitution in the 3rd domain; also called R426A mutant construct; source: HEK 293, transiently transfected; cell lysates and conditioned media, immunoadsorbed to M2 α-FLAG resin; not shown: FLAG, C-terminal, kept

[6] = target: T3, wild-type, full-length ectodomain M6P/IGF2R mini-receptor with C-terminal FLAG (1-15F) (human, UniProt P11717 41-2304); test: as above; conditions: both partners purified
T3 construct: human M6P/IGF2R, all 15 ectodomain repeats; also called wild-type M6P/IGF2R construct; source: HEK 293, transiently transfected; cell lysates and conditioned media, immunoadsorbed to M2 α-FLAG resin; not shown: FLAG, C-terminal, kept

[7] = target: T4, soluble bovine M6P/IGF2R (mannose 6-phosphate/insulin-like growth factor II receptor) (bovine, UniProt P08169 45-2313); test: radioligand binding; competitive displacement of 1.5 nM ^125I-PMP-BSA tracer from soluble bovine M6P/IGF2R coupled to Sepharose 4B; test ligands 1 pM to 10 μM; 50 mM HEPES pH 7.4, 0.15 M NaCl, 0.05% Triton X-100; 16 h at 4°C; conditions: both partners purified
T4 construct: soluble form of the bovine mannose 6-phosphate/IGF-II receptor as it circulates in fetal bovine serum; also called sIGF2R; soluble M6P/IGF2R; source: purified from fetal bovine serum; coupled to Sepharose 4B for the displacement assay

[8] = target: T1, full-length ectodomain M6P/IGF2R …; test: radioligand binding; competitive displacement of 2 nM ^125I-PMP-BSA from FLAG-tagged soluble receptors immunoprecipitated on M2 α-FLAG resin and washed; PMP-ligands 1 pM to 10 μM; assay buffer, 4 h at 4°C; conditions: both partners purified
[9] = target: T3, wild-type, full-length ectodomain …; test: as above; conditions: both partners purified

Chain of soluble bovine M6P/IGF2R (mannose 6-phosphate/insulin-like growth factor II receptor) (bovine) (P08169 45-2313): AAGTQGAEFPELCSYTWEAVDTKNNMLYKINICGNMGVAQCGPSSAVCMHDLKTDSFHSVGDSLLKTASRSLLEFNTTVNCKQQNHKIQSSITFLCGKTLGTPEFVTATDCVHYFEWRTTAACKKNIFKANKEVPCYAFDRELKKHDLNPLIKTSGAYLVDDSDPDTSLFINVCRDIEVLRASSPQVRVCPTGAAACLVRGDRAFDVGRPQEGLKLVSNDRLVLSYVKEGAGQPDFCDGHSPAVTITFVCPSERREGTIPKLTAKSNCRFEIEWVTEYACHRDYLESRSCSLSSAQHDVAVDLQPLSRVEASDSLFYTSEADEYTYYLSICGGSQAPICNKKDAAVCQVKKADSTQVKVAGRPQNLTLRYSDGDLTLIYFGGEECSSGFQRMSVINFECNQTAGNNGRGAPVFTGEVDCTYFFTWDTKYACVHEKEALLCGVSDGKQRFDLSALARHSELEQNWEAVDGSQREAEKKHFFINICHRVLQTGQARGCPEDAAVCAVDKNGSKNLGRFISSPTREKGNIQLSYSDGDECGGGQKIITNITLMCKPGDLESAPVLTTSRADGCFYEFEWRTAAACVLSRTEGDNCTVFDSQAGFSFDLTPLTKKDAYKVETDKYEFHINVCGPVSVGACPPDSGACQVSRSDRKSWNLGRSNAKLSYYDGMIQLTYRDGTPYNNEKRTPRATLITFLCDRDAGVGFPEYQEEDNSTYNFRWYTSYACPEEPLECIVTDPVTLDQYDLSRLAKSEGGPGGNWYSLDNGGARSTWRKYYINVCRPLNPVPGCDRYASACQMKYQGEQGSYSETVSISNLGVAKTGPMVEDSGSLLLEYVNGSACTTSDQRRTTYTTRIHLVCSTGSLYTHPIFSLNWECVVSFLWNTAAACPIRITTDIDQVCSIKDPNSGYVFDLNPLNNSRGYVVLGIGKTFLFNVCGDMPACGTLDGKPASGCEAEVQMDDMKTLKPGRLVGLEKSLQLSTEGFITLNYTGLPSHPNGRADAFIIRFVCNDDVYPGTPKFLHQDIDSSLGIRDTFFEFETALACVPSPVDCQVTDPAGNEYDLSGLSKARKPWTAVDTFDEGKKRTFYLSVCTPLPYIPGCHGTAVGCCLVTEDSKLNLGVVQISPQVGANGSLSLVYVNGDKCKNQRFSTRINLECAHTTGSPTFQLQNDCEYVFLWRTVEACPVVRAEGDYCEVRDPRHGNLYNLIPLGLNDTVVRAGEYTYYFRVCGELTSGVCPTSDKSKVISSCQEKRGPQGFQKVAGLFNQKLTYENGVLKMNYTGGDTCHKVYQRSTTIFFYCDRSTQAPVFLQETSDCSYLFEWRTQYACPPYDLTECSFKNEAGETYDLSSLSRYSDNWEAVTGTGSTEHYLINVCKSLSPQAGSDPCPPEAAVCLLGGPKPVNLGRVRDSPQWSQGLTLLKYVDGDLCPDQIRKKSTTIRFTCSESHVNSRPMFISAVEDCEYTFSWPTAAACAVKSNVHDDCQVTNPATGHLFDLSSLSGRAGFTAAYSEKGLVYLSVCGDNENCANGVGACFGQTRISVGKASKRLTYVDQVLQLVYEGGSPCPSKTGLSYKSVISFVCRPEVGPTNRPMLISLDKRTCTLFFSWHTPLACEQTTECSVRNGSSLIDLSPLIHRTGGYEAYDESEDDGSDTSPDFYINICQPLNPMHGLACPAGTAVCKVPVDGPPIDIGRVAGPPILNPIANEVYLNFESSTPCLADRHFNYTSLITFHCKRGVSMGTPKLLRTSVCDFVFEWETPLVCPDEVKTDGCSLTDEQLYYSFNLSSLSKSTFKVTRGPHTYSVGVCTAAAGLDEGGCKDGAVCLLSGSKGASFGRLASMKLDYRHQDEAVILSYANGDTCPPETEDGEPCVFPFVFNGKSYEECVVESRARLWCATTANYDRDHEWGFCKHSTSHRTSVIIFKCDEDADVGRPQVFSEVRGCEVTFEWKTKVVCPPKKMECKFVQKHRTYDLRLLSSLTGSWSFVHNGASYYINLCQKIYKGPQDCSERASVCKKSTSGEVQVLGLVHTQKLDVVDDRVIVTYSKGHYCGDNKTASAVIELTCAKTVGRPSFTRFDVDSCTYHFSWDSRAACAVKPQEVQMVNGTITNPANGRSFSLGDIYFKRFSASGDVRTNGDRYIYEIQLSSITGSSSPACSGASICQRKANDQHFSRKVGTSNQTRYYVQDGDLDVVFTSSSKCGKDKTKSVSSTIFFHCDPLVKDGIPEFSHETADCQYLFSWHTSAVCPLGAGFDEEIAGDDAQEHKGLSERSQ
T4 sequence (P08169 45-2313): as above

## pentamannosyl 6-phosphate-derivatized bovine insulin (PMP-INS) (ligand)
[1]
  IC50: 13 nM
  RBA (relative binding affinity, normalized to free M6P): 5540

## pentamannosyl 6-phosphate-derivatized lysyl-tyrosyl-lysine (PMP-KYK) (peptide)
[1]
  IC50: 120 nM
  RBA (relative binding affinity, normalized to free M6P): 600

## pentamannosyl 6-phosphate-derivatized seryl-tyrosyl-lysine (PMP-SYK) (peptide)
[1]
  IC50: 52 nM
  RBA (relative binding affinity, normalized to free M6P): 1380
[2]
  suppression of growth (MTT, 2 days) of mouse L cells over-expressing the M6P/IGF2R, PMP-SYK 1 pM to 1 μM; blocked by saturating M6P: 50%

## wild-type, full-length ectodomain M6P/IGF2R mini-receptor with C-terminal FLAG (1-15F) (from UniProt P11717) R426A
[3]
  response: 5300 CPM

## wild-type, full-length ectodomain M6P/IGF2R mini-receptor with C-terminal FLAG (1-15F) (from UniProt P11717) R426A; R1325A
[3]
  response: 5900 CPM

## wild-type, full-length ectodomain M6P/IGF2R mini-receptor with C-terminal FLAG (1-15F) (from UniProt P11717) R1325A
[3]
  response: 5000 CPM

B1: human β-glucuronidase (hGUS) (enzyme, UniProt P08236 23-651, looked up)
chain: LQGGMLYPQESPSRECKELDGLWSFRADFSDNRRRGFEEQWYRRPLWESGPTVDMPVPSSFNDISQDWRLRHFVGWVWYEREVILPERWTQDLRTRVVLRIGSAHSYAIVWVNGVDTLEHEGGYLPFEADISNLVQVGPLPSRLRITIAINNTLTPTTLPPGTIQYLTDTSKYPKGYFVQNTYFDFFNYAGLQRSVLLYTTPTTYIDDITVTTSVEQDSGLVNYQISVKGSNLFKLEVRLLDAENKVVANGTGTQGQLKVPGVSLWWPYLMHERPAYLYSLEVQLTAQTSLGPVSDFYTLPVGIRTVAVTKSQFLINGKPFYFHGVNKHEDADIRGKGFDWPLLVKDFNLLRWLGANAFRTSHYPYAEEVMQMCDRYGIVVIDECPGVGLALPQFFNNVSLHHHMQVMEEVVRRDKNHPAVVMWSVANEPASHLESAGYYLKMVIAHTKSLDPSRPVTFVSNSNYAADKGAPYVDVICLNSYYSWYHDYGHLELIQLQLATQFENWYKKYQKPIIQSEYGAETIAGFHQDPPLMFTEEYQKSLLEQYHLGLDQKRRKYVVGELIWNFADFMTEQSPTRVLGNKKGIFTRQRQPKSAAFLLRERYWKIANETRYPHSVAKSQCLENSLFT
modifications: multiple high-mannose N-linked oligosaccharides capped with M6P; ^125I-labelled (IODOGEN) where used as tracer
notes: human β-glucuronidase, a homotetrameric lysosomal enzyme; source: purified human β-glucuronidase provided by Dr. William S. Sly
[4]
  binding result: binds
[5]
  binding result: binds
[6]
  binding result: binds

B2: pentamannosyl 6-phosphate-derivatized chicken egg ovalbumin (PMP-OVA) (ligand, UniProt P01012 1-386, looked up)
chain: MGSIGAASMEFCFDVFKELKVHHANENIFYCPIAIMSALAMVYLGAKDSTRTQINKVVRFDKLPGFGDSIEAQCGTSVNVHSSLRDILNQITKPNDVYSFSLASRLYAEERYPILPEYLQCVKELYRGGLEPINFQTAADQARELINSWVESQTNGIIRNVLQPSSVDSQTAMVLVNAIVFKGLWEKAFKDEDTQAMPFRVTEQESKPVQMMYQIGLFRVASMASEKMKILELPFASGTMSMLVLLPDEVSGLEQLESIINFEKLTEWTSSNVMEERKIKVYLPRMKMEEKYNLTSVLMAMGITDVFSSSANLSGISSAESLKISQAVHAAHAEINEAGREVVGSAEAGVDAASVSEEFRADHPFLFCIKHIATNAVLFFGRCVSP
modifications: pentamannosyl 6-phosphate (PMP) coupled by reductive amination, approximately 13 PMP groups
notes: chicken egg white albumin (ovalbumin); source: bought: Sigma (A-5503), conjugated to PMP with NaCNBH3, dialysed and gel filtered (Sephadex G-50)
[7]
  IC50: 21 nM
[8]
  binding result: binds
[9]
  binding result: binds

— paper PMC5308735, “Inhibition of insulin-like growth factor II (IGF-II)-dependent cell growth by multidentate pentamannosyl 6-phosphate-based ligands targeting the mannose 6-phosphate/IGF-II receptor” (Oncotarget, 2016)
